Measured values published in US20090155256A1.

Molecular target: His-tagged domains of human FcγRII (R&D Systems, Cat # 1330-CD) (human) (UniProt P12318)
Assay: SPR (Biacore 3000), His-tagged receptor captured by penta-His antibody on CM5 chip, antibody injected; RU relative to control

Relative Binding Capability (%): 100%
Substance: Bapineuzumab (humanized 3D6, human IgG1, no Fc mutations) (antibody)
